{"source": "paper PMC5673899", "about": "“Structural basis for receptor recognition of pollen tube attraction peptides” (Nature Communications, 2017)", "molecules": {"B1": {"name": "AtLURE1.2, mature form (residues 20-90) (peptide, UniProt Q4VP08 20-90, looked up)", "chain": "TLINGSSDEERTYSFSPTTSPFDPRSLNQELKIGRIGYCFDCARACMRRGKYIRTCSFERKLCRCSISDIK", "notes": "AtLURE1.2, defensin-like cysteine-rich peptide of Arabidopsis thaliana, mature form, residues 20-90; Cloned in pFastBac-1 behind a modified N-terminal hemolin signal peptide and a 6xHis-SUMO tag; Likely glycosylated (apparent 14 kDa); also called AtLURE1.2 peptide; source: also co-expressed with AtPRK6^LRR for the crystallised complex; not shown: His6, N-terminal, cleaved; SUMO, N-terminal, …"}, "B2": {"name": "R68A: R68A mutant AtLURE1.2 peptide (protein, UniProt Q4VP08 20-90, looked up, variant R68A)", "Protein LURE 1.2": "B1 chain with R49A"}, "B3": {"name": "R73A: R73A mutant AtLURE1.2 peptide (protein, UniProt Q4VP08 20-90, looked up, variant R73A)", "Protein LURE 1.2": "B1 chain with R54A"}, "B4": {"name": "R79A: R79A mutant AtLURE1.2 peptide (protein, UniProt Q4VP08 20-90, looked up, variant R79A)", "Protein LURE 1.2": "B1 chain with R60A"}, "B5": {"name": "R83A: R83A AtLURE1.2 peptide, Arg83 substituted with alanine (protein)", "chain": "B1 chain with R64A", "modifications": "left off: His6, N-terminal, cleaved | SUMO, N-terminal, cleaved", "notes": "R83A AtLURE1.2 peptide, Arg83 substituted with alanine"}, "B6": {"name": "AtLURE1.2 R83A (residues 20-90) (peptide, UniProt Q4VP08 20-90, looked up)", "chain": "B1 chain with R64A", "notes": "AtLURE1.2 of Arabidopsis thaliana, mature form, residues 20-90, with R83A; also called R83A AtLURE1.2; mutant peptide R83A; source: High Five insect cells (baculovirus), secreted, purified as AtLURE1.2; not shown: His6, N-terminal, cleaved; SUMO, N-terminal, cleaved"}}, "key": {"[1]": {"target": "T1, AtPRK6^LRR, extracellular LRR domain of AtPRK6 (residues 1-262) (Arabidopsis thaliana, UniProt Q3E991 27-262)", "T1 chain": "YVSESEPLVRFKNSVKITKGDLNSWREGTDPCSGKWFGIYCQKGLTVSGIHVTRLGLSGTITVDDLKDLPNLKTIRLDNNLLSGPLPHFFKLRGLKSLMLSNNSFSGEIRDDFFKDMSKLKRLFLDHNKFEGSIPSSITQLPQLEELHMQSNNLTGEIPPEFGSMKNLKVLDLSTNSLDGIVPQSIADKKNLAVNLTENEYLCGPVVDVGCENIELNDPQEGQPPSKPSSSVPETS", "assay": "ITC"}, "[2]": {"target": "T2, AtPRK6^LRR, extracellular LRR domain of AtPRK6 (residues 1-262) (Arabidopsis thaliana, UniProt Q3E991 27-262)", "T2 construct": "signal peptide in the construct; leucine-rich repeat receptor kinase PRK6 of Arabidopsis thaliana, extracellular LRR domain, residues 1-262; Monomer by gel filtration; likely glycosylated (apparent 34 kDa); source: High Five insect cells (baculovirus), secreted, purified (Ni-NTA, size-exclusion chromatography); also co-expressed with AtLURE1 peptides; not shown: His6, C-terminal, kept", "T2 sequence (looked up)": "T1 chain", "assay": "ITC; ITC200, 25 °C, 200 mM HEPES pH 7.0, 100 mM NaCl; about 0.9 mM AtLURE1.2 injected (20 x 2 μl) into 0.08 mM LRR protein in the cell", "conditions": "both partners purified"}, "[3]": {"target": "T3, AtPRK6^LRR N239A (residues 1-262) (Arabidopsis thaliana, UniProt Q3E991 27-262, N239A)", "T3 construct": "signal peptide in the construct; PRK6 of Arabidopsis thaliana, extracellular LRR domain, residues 1-262, with N239A; also called N239A mutant of PRK6; source: High Five insect cells (baculovirus), secreted, purified as AtPRK6^LRR; not shown: His6, C-terminal, kept", "T3 sequence (looked up)": "T1 chain with N213A", "assay": "pull-down; His-tagged LRR protein mixed with excess AtLURE1.2 peptide and held on Ni-NTA resin, on ice 30 min; washed five times with 25 mM Tris pH 8.0, 150 mM NaCl, 15 mM imidazole; eluted with 250 mM imidazole; SDS-PAGE, Coomassie", "conditions": "both partners purified"}, "[4]": {"system": "semi-in-vivo pollen tubes", "assay": "Gelatin-beads assay, wild-type semi-in-vivo pollen tubes", "assay_type": "cell-based, Arabidopsis", "conditions": "for pollen tube attraction activity (in words): Tukey−Kramer test, P < 0.05", "procedure": "(§1) Attraction activities of mutant AtLURE1.2 peptides were examined for semi-in-vivo pollen tubes growing through cut, pollinated pistils by gelatin-beads assay and wavy assay, [20]. For the gelatin-beads assay, pollen tubes were grown on solid pollen germination medium poured into a mold made with 1-mm thick silicone rubber and cover glasses. After hand-pollination, the topside cover glass was removed and the medium was covered with hydrated silicone oil (KF-96–100CS; Shin-Etsu). Attraction of pollen tubes toward the peptide was evaluated using AtLURE1 peptide containing gelatine beads under an inverted microscope (IX71, Olympus) equipped with a micro-manipulator (Narishige). For the AtLURE1-responsive wavy assay, the purified AtLURE1.2 peptide was added to solid pollen germination medium, which was melted at 70 °C and then cooled to a certain degree. The mixture was mixed by vortexing and poured into the mold. Pollen tubes of each genotype were grown through cut styles, as mentioned above. Each peptide (25 μM in 10 mM Bis-Tris (pH 6.0) and 100 mM NaCl) was diluted to 250 nM by cultivation medium in both assays. To examine reactivity of PRK6 mutants to AtLURE1.2, constructs for PRK6 mutants, D234A, N239A, and ΔN239I240, were generated by site-directed mutagenesis from a wild-type PRK6 vector, pPZP221-pPRK6::PRK6-mRuby2 (ref. [20]). Wild-type and mutant PRK6 constructs were introduced into prk6–1 plant. After transformants were selected by the same criteria as previously, beads assay and wavy assay were performed in several T1 lines and single T2 line, respectively, for each genotype using 250 nM wild-type AtLURE1.2 peptide."}, "AtPRK6^LRR": {"system": "AtPRK6^LRR", "assay": "In vitro pull-down with AtPRK6^LRR", "assay_type": "binding, Arabidopsis thaliana", "description": "The genes of AtPRK3 ^LRR (residues 1–241), AtPRK4 ^LRR (residues 1–277), AtPRK5 ^LRR (residues 1–279), AtPRK6 ^LRR (residues 1–262), MIK1 ^LRR (residues 1–633), MIK2 ^LRR (residues 1–707) were amplified from Arabidopsis cDNA library by PCR and cloned into pFastBac-1 vector with a C-terminal 6 × His-tag. Their identities were confirmed by sequencing. The mature form of AtLURE1.1 (residues 20–94), AtLURE1.2 (residues 20–90), AtLURE1.3 (residues 21–91), and AtLURE1.4 (residues 20–90) were cloned into pFastBac-1 vector, with a modified N-terminal hemolin signal peptide and 6 × His-SUMO tag. Point mutation constructs were generated by QuickChange Site-Directed Mutagenesis Kit (Strategene). All the proteins were expressed using the Bac-to-Bac baculovirus expression system (Invitrogen) in High Five cells at 22 °C. One liter of High Five cells (2.0 × 10^6 cells mL^−1) cultured in the medium from Expression Systems was infected with 25 ml recombinant baculovirus and the media was collected after 72 h of infection. Secreted LRR proteins were purified using Ni-NTA (Novagen) and size-exclusion chromatography (Hiload 200, GE Healthcare) in buffer containing 10 mM Bis-Tris pH 6.0 and 100 mM NaCl. The His-SUMO tag of the AtLURE proteins was removed by Prescission Protease at 4 °C overnight in buffer containing 25 mM Tris pH 8.0 and 150 mM NaCl. All AtLURE proteins were further cleaned by size-exclusion chromatography (Hiload 200, GE Healthcare). For co-expression of AtPRK6^LRR and AtLURE1, one liter of High Five cells were co-infected with 20 and 30 ml recombinant baculovirus of AtPRK6^LRR and AtLURE1, respectively. Secreted AtPRK6^LRR-AtLURE1 complexes were processed with Prescission Protease digestion and then purified as described above. Expression and purification procedures of all the mutants were essentially the same as those of AtPRK6^LRR and AtLURE1.2.\nThe purified His-tagged ectodomains of AtPRK proteins and MIK1, 2 were used to pull-down the AtLURE1.2 peptide. […] All the eluted samples were analyzed by SDS-PAGE and visualized by Coomassie blue staining. […]"}, "[5]": {"system": "semi-in-vivo pollen tubes (wild type)", "assay": "AtLURE-responsive wavy assay, wild-type pollen tubes", "assay_type": "cell-based, Arabidopsis", "conditions": "250 nM peptide in solid pollen germination medium", "procedure": "as §1, with “To examine reactivity of PRK6 mutants to AtLURE1.2, constructs for PRK6 mutants, D234A, N239A, and ΔN239I240, were generated by site-directed mutagenesis from a wild-type PRK6 vector, pPZP221-pPRK6::PRK6-mRuby2 (ref. [20]). Wild-type and mutant PRK6 constructs were introduced into prk6–1 plant. After transformants were selected by the same criteria as previously, beads assay and wavy assay were performed in several T1 lines and single T2 line, respectively, for each genotype using 250 nM wild-type AtLURE1.2 peptide.” left out\npollen tubes. Fluorescence is from mRuby2 fused to the C-terminal of PRK6 receptors, showing that all of mutant PRK6 receptors localize normally to the plasma membrane of the pollen tube tip. […]"}, "[6]": {"target": "T2, AtPRK6^LRR, extracellular LRR domain of …", "assay": "pull-down; His-tagged LRR protein mixed with excess AtLURE1.2 peptide and held on Ni-NTA resin, on ice 30 min; washed five times with 25 mM Tris pH 8.0, 150 mM NaCl, 15 mM imidazole; eluted with 250 mM imidazole; SDS-PAGE, Coomassie", "conditions": "both partners purified"}, "[7]": {"conditions": "gelatin beads containing 250 nM peptide"}}, "note": "Where a chain is given by its changes, count along the chain named. Numbers in names are those of the source. Entries after “also recorded” stand apart in the source; their conditions may differ.", "data": [{"molecule": "B1", "values": [{"measurement": "Ka", "setting": "[1]", "value": 321000, "unit": "M⁻¹"}, {"measurement": "Kd", "setting": "[2]", "value": "~3.1", "unit": "µM"}, {"measurement": "binding result", "setting": "[3]", "value": "binds"}]}, {"molecule": "B2", "values": [{"measurement": "pollen tube attraction activity (in words)", "setting": "[4]; [7]", "value": "little effect"}]}, {"molecule": "B3", "values": [{"measurement": "pollen tube attraction activity (in words)", "setting": "[4]; [7]", "value": "little effect"}]}, {"molecule": "B4", "values": [{"measurement": "pollen tube attraction activity (in words)", "setting": "[4]; [7]", "value": "little effect"}]}, {"molecule": "B5", "values": [{"measurement": "interaction in pull-down assay", "setting": "AtPRK6^LRR; Ni-NTA, excess AtLURE1.2, on ice 30 min, washed five times, 25 mM Tris pH 8.0, 150 mM NaCl, SDS-PAGE, Coomassie blue, repeated at least three times", "value": "compromised but not abolished; also recorded: compromised"}, {"measurement": "interaction in pull-down assay, less harsh washing", "setting": "AtPRK6^LRR; once or twice washing, peer review file", "value": "much less than the wild type AtLURE1.2"}, {"measurement": "pollen tube attraction activity (in words)", "setting": "[4]; [7]", "value": "significantly lower than those in other four peptides"}, {"measurement": "attraction frequency of pollen tubes", "setting": "[4]; gelatin beads containing 250 nM peptide, mean ± SD, 9–16 pollen tubes per assay, 3−5 assays", "value": "56 ± 11", "unit": "%"}, {"measurement": "pollen tubes not attracted to the bead", "setting": "[4]; gelatin beads, 250 nM peptide", "value": "more than 44%"}, {"measurement": "wavy pollen tube response", "setting": "[5]", "value": "decreased; also recorded: greatly reduced the numbers of wavy pollen tubes"}]}, {"molecule": "B6", "values": [{"measurement": "binding result", "setting": "[6]", "value": "binds"}]}]}
